This note sets out measurements from PMC10754921.

The experiment deals with FMC63-scFv (VL - Whitlow linker - VH, C-terminal His8 tag) (mouse). Description: SEC-MALS; 25 µg injected, Superdex 200 Increase 10/300 GL, PBS with additional 200 mM NaCl, pH 7.4, 25 °C.

With “FMC63-scFv (VL - Whitlow linker - VH, C-terminal His8 tag)”, the percent dimers was 20% and the stoichiometry N turned out to be 2.

For orientation: stoichiometry N means a count of units in the complex or per binding partner.
